Data on 1 molecule can be found in patent US20240043505A1.

In this assay the target is SARS-CoV-2 RBD E484K mutant (SARS-CoV-2), P0DTC2. As to conditions: remark: other sources report otherwise.

B1: Nb21 (VHH)
VHH: QVQLVESGGGLVQAGGSLRLSCAVSGLGAHRVGWFRRAPGKEREFVAAIGANGGNTNYLDSVKGRFTISRDNAKNTIYLQMNSLKPQDTAVYYCAARDIETAEYTYWGQGTQVTVSS
On to B1, for which the binding affinity fold change relative to RBD WT is below -1000 fold.
